T1: CaNAC6 (GST-NAC6 fusion) (Capsicum annuum, UniProt A0A1U8EDX1 1-299)
T1 sequence: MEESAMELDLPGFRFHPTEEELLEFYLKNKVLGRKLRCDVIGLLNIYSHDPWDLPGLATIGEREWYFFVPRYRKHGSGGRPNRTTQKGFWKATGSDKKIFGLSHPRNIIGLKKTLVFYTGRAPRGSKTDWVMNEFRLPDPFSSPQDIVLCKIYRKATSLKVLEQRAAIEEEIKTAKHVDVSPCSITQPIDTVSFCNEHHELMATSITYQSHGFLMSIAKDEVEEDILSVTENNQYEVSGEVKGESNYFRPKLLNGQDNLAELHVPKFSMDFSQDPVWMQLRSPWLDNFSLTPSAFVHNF

B1: CaSLR1 SNBE1 mutant probe (dsDNA)
DNA 1: CTTTTGGATTTGTCTTGTAAGAAGATCAA
DNA 2: TTGATCTTCTTACAAGACAAATCCAAAAG
B2: CaSLR1 SNBE3 mutant probe (dsDNA)
DNA 1: TCTTAGTACTTATACCTCAAGGCGCAAGG
DNA 2: CCTTGCGCCTTGAGGTATAAGTACTAAGA
B3: CaSLR1 SNBE2 mutant probe (dsDNA)
DNA 1: GTTGTGTTTCTCTTTTATACGTTGGTCGT
DNA 2: ACGACCAACGTATAAAAGAGAAACACAAC

These binders were tested against T1, CaNAC6 (GST-NAC6 fusion) (assay: EMSA; LightShift chemiluminescence EMSA kit (Bes5003), 6% acrylamide gel; buffer, salt, pH and temperature not stated). Details: protein: recombinant; tags: GST; chain copies: 2; label: biotin.

Binding result, no binding:
B1, B2, B3

— publication PMC11317896, “Stem lodging Resistance-1 controls stem strength by positively regulating the biosynthesis of cell wall components in Capsicum annuum L”
